One may read the koff as the rate constant with which the complex falls apart. A word on the kon: it is the second-order rate constant of association. The term EC50 (read off the curve) denotes the midpoint of the concentration-response curve.

Assay [1] deals with baboon EL (baboon). As to the kind of experiment: cell-based or functional assay.
Assay [2] deals with cynomolgus monkey EL (cynomolgus monkey). Put plainly: cell-based or functional assay.
Assay [3] deals with human-mouse chimeric EL (construct not specified). As to the kind of experiment: cell-based or functional assay.
The target in assay [4] is T1, baboon EL (baboon).
T1 construct: Heparin extract
Put plainly: Biacore; EL captured by anti-C2-tag Ab; bivalent fit. The protocol:
(§1) The binding affinities of anti-EL antibodies were measured using Biacore. […] Then, anti-EL antibodies were added and the binding affinities were calculated by bivalent fitting of BIAevaluation software.
(Surface plasmon resonance follows binding to a sensor surface in real time, without labels.)

Assay [5] has as its target T2, cynomolgus monkey EL (cynomolgus monkey).
T2 construct: Heparin extract; also called cynomolgus EL; Cynomolgus EL
Described as above. Here is the method: as §1

Assay [6] concerns the target T3, human [1-305]-mouse chimeric EL (human; mouse, UniProt Q9WVG5 306-500).
T3 construct: Heparin extract, captured or detected by an anti-C2-tag antibody; also called human-mouse chimeric EL
T3 sequence: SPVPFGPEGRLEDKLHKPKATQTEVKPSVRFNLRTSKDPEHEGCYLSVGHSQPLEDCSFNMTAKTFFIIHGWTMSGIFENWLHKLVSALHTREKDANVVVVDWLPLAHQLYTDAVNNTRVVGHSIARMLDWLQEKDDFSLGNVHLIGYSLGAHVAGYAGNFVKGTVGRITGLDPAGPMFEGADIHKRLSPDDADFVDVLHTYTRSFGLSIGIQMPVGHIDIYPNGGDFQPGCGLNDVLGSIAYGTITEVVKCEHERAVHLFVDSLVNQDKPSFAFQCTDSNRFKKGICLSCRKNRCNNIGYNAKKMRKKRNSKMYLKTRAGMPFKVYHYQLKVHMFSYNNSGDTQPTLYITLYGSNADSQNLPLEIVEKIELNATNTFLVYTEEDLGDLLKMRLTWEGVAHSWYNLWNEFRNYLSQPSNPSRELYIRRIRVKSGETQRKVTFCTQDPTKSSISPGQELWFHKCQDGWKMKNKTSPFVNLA
The assay is described as above. Here is the method: as §1

Assay [7] deals with T2, cynomolgus monkey EL. Put plainly: ELISA: antibody captured on anti-mouse IgG-Fc plate, EL heparin extract added, detection with biotin anti-C2-tag antibody and HRP-streptavidin, A450. The protocol:
(§2) Assay buffer containing 15 μl of anti-EL antibody was added to anti-mouse IgG-Fc antibody-immobilized microtiter plate, and incubated for 2 hr. […] After washing the wells three times with 90 μL of washing buffer, 15 μl of assay buffer containing biotin-labeled anti-C2-tag antibody and HRP-labeled Streptavidin were added to the wells and incubated at room temperature for 1 hr. After washing the wells three times with 90 μL of washing buffer, 15 μL of TMB+—Substrate—Chromogen (DAKO) was added and incubated at room temperature for 30 min and then 15 μL of 0.05 M H2SO₄ was added and absorbance at 450 nm was measured (FIG. 3A to 3K).
(An ELISA detects its analyte on a solid surface through an enzyme-linked reagent.)

Another assay addresses T4, mouse EL (mouse, UniProt Q9WVG5 21-500).
T4 construct: Heparin extract
T4 sequence (looked up): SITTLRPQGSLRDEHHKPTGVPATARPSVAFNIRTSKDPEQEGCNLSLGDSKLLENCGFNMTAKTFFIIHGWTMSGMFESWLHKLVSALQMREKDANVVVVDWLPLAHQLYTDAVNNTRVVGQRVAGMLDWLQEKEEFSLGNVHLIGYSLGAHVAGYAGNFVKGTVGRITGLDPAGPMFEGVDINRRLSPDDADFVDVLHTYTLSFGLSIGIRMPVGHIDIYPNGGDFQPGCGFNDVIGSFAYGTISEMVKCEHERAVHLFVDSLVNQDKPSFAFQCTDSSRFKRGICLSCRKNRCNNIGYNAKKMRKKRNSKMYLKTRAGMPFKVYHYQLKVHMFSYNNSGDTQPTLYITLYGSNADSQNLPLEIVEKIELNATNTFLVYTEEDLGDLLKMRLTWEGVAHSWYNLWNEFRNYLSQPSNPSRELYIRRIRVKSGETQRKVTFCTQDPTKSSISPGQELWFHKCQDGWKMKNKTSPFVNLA
Described as above. The protocol:
as §2

Assay [8] concerns the target T5, human [1-157]-mouse chimeric EL (human; mouse, UniProt Q9WVG5 158-500).
T5 construct: Heparin extract, detected by an anti-C2-tag antibody
T5 sequence: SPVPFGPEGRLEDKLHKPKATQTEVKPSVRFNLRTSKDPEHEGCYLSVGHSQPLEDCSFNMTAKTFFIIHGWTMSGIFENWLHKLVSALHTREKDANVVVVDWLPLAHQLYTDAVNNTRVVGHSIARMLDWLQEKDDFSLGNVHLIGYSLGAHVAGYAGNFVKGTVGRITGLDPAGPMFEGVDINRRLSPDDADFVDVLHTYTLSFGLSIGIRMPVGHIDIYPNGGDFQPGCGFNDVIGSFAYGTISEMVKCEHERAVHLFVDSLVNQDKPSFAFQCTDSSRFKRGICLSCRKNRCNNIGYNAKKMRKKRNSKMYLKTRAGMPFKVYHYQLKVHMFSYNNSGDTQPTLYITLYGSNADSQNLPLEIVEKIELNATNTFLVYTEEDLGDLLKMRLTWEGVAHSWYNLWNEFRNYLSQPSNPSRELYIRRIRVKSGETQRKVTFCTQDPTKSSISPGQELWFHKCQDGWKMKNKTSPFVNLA
The assay is described as above. Here is the method: as §2

Assay [9] deals with T1, baboon EL. Described as above. The protocol: as §2
Assay [10] deals with T3, human [1-305]-mouse chimeric EL. As to the kind of experiment: cell-based or functional assay.
For assay [11] the target is unchanged. Put plainly: Biacore; EL captured by anti-C2-tag Ab; bivalent fit. Here is the method: The binding affinities of anti-EL antibodies were measured using Biacore. […] Then, anti-EL humanized antibodies were added and the binding affinities were calculated by bivalent fitting of BIAevaluation software.
This is another data set of the same source.

Assay [12] concerns the target T2, cynomolgus monkey EL. As to the kind of experiment: cell-based or functional assay. The source holds these as a separate data set.

Read-outs that look alike come from different tables or passages of the source.

B1: 14A1 (antibody, mouse IgG1, V domains shown)
VH: QIQLVQSGPELKKPGETVKISCKASGYTFTNYGMNWVKQAPGKGLKWMGWINTYSGVPTYADDFKGRFAFSLETSASTAYLQINNFKNEDTATYFCARFSYYGRHYFDYWGQGTALTASS
VL: DIVLTQSPASLAVSLGQRATISCKASQSVDYDGDSYMNWYQQKPGQPPKLLIYAASNLKSGIPARFSGSGSGTDFTLNIHPVEEEDAATYYCQQTTDDPPWTFGGGTKLEIK
notes: mouse IgG1 from hybridoma
With B1, the figures for the “Neutralizing activity IC50” value (with baboon EL [1]; with cynomolgus monkey EL [2]; in [3]) were 2.7 nM, 3.1 nM and 5.8 nM, respectively. The Kd with baboon EL [4] is 3.3 nM; with cynomolgus monkey EL [5], 3.9 nM; in assay [6], 0.5 nM. The figures for the koff (in the assay with baboon EL [4]; with cynomolgus monkey EL [5]; in [6]) were 0.00062 s⁻¹, 0.00081 s⁻¹ and 0.0001 s⁻¹, respectively. Moreover, the kon was found to be 190000 M⁻¹ s⁻¹ with baboon EL [4], 210000 M⁻¹ s⁻¹ with cynomolgus monkey EL [5] and 210000 M⁻¹ s⁻¹ in [6]. In addition, the “EC50 (read off the curve)” value with cynomolgus monkey EL [7] was ~20 ng/mL; in assay [8], ~7 ng/mL. Also, in the assay with mouse EL, the binding result was “no binding (tested: about 330 ng/mL)”.

B2: 7D4 (antibody, mouse IgG1, V domains shown)
VH: QIQLVQSGPELKKPGETVKISCKASGYTFTNYGMNWVKQAPGKDLKWMGWINTYSGVPTYADDFKGRFAFSLETSASTAYLQINNLKNEDTATYFCARFSYYGRHYFDYWGQGTTLTVSS
VL: DIVLTQSPASLAVSLGQRATISCKASQSVDYDGDSYMNWYQQKPGQPPQLLIYAASNLGSGIPARFSGSGSGTDFTLNIHPVEEEDAATYYCHQSTDDPPWTFGGGTKLEIK
notes: mouse IgG1 from hybridoma
Regarding B2, the “Neutralizing activity IC50” value is 2.6 nM in the assay with baboon EL [1], 2.1 nM with cynomolgus monkey EL [2] and 3.7 nM in [3]. Moreover, the results for the Kd (with baboon EL [4]; with cynomolgus monkey EL [5]; in [6]) were 4.5 nM, 1.9 nM and 0.97 nM, respectively. In addition, the figures for the koff (with baboon EL [4]; in the assay with cynomolgus monkey EL [5]; in assay [6]) were 0.00035 s⁻¹, 0.00023 s⁻¹ and 0.00011 s⁻¹, respectively. In addition, the kon with baboon EL [4] is 78000 M⁻¹ s⁻¹; with cynomolgus monkey EL [5], 120000 M⁻¹ s⁻¹; in assay [6], 110000 M⁻¹ s⁻¹. For the same molecule, the “EC50 (read off the curve)” value is ~9 ng/mL with baboon EL [9], ~10 ng/mL with cynomolgus monkey EL [7] and ~6 ng/mL in [8]. Moreover, the binding result with mouse EL is “no binding (tested: about 330 ng/mL)”.

B3: 2D5 (antibody, mouse IgG2a, V domains shown)
VH: QIQLVQSGPELKKPGETVKISCKASGYTFTNYGMNWVKQAPGKGLKWMGWINTYSGVPTYTDDFKGRFAFSLETSASTAFLQINNLKNEDTATYFCARFSYYGRHYFDYWGQGTTLTVSS
VL: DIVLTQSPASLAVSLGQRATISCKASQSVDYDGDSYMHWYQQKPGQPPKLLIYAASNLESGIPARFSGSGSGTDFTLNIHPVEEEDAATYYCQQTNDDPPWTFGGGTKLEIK
notes: mouse IgG2a from hybridoma
As for B3, the “Neutralizing activity IC50” value came out at 2.9 nM with baboon EL [1], 3 nM in the assay with cynomolgus monkey EL [2] and 2.7 nM in assay [3]. The Kd was determined as 2.2 nM in the assay with baboon EL [4], 3.8 nM with cynomolgus monkey EL [5] and 1.1 nM in assay [6]. In addition, the off-rate (koff) in the assay with baboon EL [4] was 0.00017 s⁻¹; in the assay with cynomolgus monkey EL [5], 0.00028 s⁻¹; in assay [6], 9.3e-05 s⁻¹. Also, the on-rate constant (kon) with baboon EL [4] worked out at 77000 M⁻¹ s⁻¹; with cynomolgus monkey EL [5] it was 74000 M⁻¹ s⁻¹; in [6] it was 85000 M⁻¹ s⁻¹. Also, the concentration for a half-maximal effect (EC50 (read off the curve)) is ~20 ng/mL in the assay with baboon EL [9], ~10 ng/mL with cynomolgus monkey EL [7] and ~8 ng/mL in assay [8]. In the assay with mouse EL, the binding result is recorded as “no binding (tested: about 330 ng/mL)”.

B4: h55A1-F2 (antibody, V domains shown)
VH: QVQLVQSGAEVKKPGASVKVSCKASGYTFTNYGMNWVRQAPGQGLEWMGWINTYSGVPTYAGDFKGRVTMTTDTSTSTAYMELRSLRSDDTAVYYCARRGYYGRRYFDVWGKGTTVTVSS
VL: EIVMTQSPATLSVSPGERATLSCKASQSVDYDVDSYMHWYQQKPGQAPRLLIYAASNLASGIPARFSGSGSGTEFTLTISSLQSEDFAVYYCQQTIEDPPTFGGGTKVEIK
notes: humanized
Turning to B4, the “Neutralizing activity IC50” value in assay [10] was found to be 2.1 nM. Besides, in assay [11], the Kd came to 0.17 nM, the dissociation rate constant (koff) came out at 2.6e-05 s⁻¹ and the kon amounted to 160000 M⁻¹ s⁻¹.

B5: h55A1-F6 (antibody, V domains shown)
VH: QVQLVQSGAEVKKPGASVKVSCKASGYTFTNYGMNWVRQAPGQGLEWMGWINTYSGVPTYAGDFKGRFTFTLDTSTSTAYMELSSLRSEDTAVYYCARRGYYGRRYFDVWGKGTTVTVSS
VL: EIVMTQSPATLSVSPGERATLSCKASQSVDYDVDSYMHWYQQKPGQAPRLLIYAASNLASGIPARFSGSGSGTEFTLTISSLQSEDFAVYYCQQTIEDPPTFGGGTKVEIK
notes: humanized
In the case of B5, in assay [10], the “Neutralizing activity IC50” value is 2.3 nM. Moreover, in [11], the Kd was found to be 0.3 nM, the koff was 4.8e-05 s⁻¹ and the on-rate constant (kon) was determined as 160000 M⁻¹ s⁻¹.

B6: h55A1-F4 (antibody, V domains shown)
VH: QVQLVQSGAEVKKPGASVKVSCKASGYTFTNYGMNWVRQAPGQGLEWMGWINTYSGVPTYAGDFKGRVTMTTDTSTSTAYMELRSLRSDDTAVYYCARRGYYGRRYFDVWGKGTTVTVSS
VL: EIVLTQSPGTLSLSPGERATLSCKASQSVDYDVDSYMHWYQQKPGQAPRLLIYAASNLASGIPDRFSGSGSGTDFTLTISRLEPEDFAVYYCQQTIEDPPTFGGGTKVEIK
notes: humanized
On to B6, for which the “Neutralizing activity IC50” value in assay [10] was 2.4 nM. In assay [11], this molecule had a Kd of 0.22 nM, a koff of 3e-05 s⁻¹ and a kon of 140000 M⁻¹ s⁻¹.

B7: h53A11-S4 (antibody, V domains shown)
VH: QVQLVQSGAEVKKPGASVKVSCKASGYTFTDYTMHWVRQAPGQRLEWMGGINPYYGGTTYNEKFKDRVTITRDTSASTAYMELSSLRSEDTAVYYCARGDYYGGSYNYWGQGTTVTVSS
VL: EIVMTQSPATLSVSPGERATLSCRASQDISNSLHWYQQKPGQAPRLLIKYASQSISGIPARFSGSGSGTEFTLTISSLQSEDFAVYYCQQSNSWPYTFGQGTKLEIK
Turning to B7, the “Neutralizing activity IC50” value with cynomolgus monkey EL [12] worked out at 12 nM.

(Values after patent US20200071424A1 (SHIONOGI, published 2020).)
